Data from the RNAGym collection of RNA variant scans (doi:10.7554/elife.80360).

B1: Hammerhead Ribozyme (parent)
chain: ACCGGAUGUGCUUUCCGGUCUGAUGAGUCCGUGAGGACGAAACAG

Variants of: B1
Assay: self-cleavage, relative activity (ratio to wild type); higher = more cleavage; co-transcriptional

Variant | self-cleavage
C15A G33U | 0.893
C15A G33C | 0.953
C15A G33A | 0.921
C16A A26G | 0.37
C16A A26C | 0.433
C16A A26U | 0.59
C15U G22U | 0.386
C15U G22C | 0.288
C15U G22A | 0.288
C15G A40C | 0.326
C15G A40G | 0.42
C15G A40U | 0.358
C16A C30U | 1.32
C16A C30G | 0.591
C16A C30A | 0.911
C15A G18U | 0.33
C15A G18C | 0.364
C15A G18A | 0.323
C15G G31C | 0.792
C15G G31U | 0.856
C15G G31A | 1.01
C15A A44C | 0.404
C15A A44G | 0.897
C15A A44U | 0.441

Variant | self-cleavage
C15U C38A | 0.677
C15U C38G | 0.689
C15U C38U | 0.82
C15U A34G | 0.813
C15U A34U | 0.843
C15U A34C | 0.98
C16A A37C | 0.898
C16A A37G | 0.874
C16A A37U | 0.616
C15A G36A | 0.407
C15A G36C | 0.379
C15A G36U | 0.341
C15G G33C | 1.04
C15G G33U | 1
C15G G33A | 0.9
C16A G25U | 0.331
C16A G25C | 0.372
C16A G25A | 0.347
C15A A42C | 0.291
C15A A42U | 0.282
C15A A42G | 0.264
C15A C20U | 0.438
C15A C20A | 0.316
C15A C20G | 0.289

Variant | self-cleavage
C15U U19C | 0.581
C15U U19A | 0.344
C15U U19G | 0.327
C15G G17A | 0.322
C15G G17C | 0.323
C15G G17U | 0.321
C15U U24G | 1.35
C15U U24A | 0.853
C15U U24C | 0.812
C15A G45U | 0.467
C15A G45C | 0.44
C15A G45A | 0.498
C15G U19G | 0.382
C15G U19C | 0.232
C15G U19A | 0.336
C15G G45U | 0.421
C15G G45C | 0.379
C15G G45A | 0.446
C15A C16U | 0.647
C15A C16G | 0.521
C15A C16A | 0.869
C15U C16A | 0.76
C15U C16U | 0.776
C15U C16G | 0.708

Variant | self-cleavage
C15A G39U | 0.353
C15A G39A | 0.337
C15A G39C | 0.366
C15G A41G | 0.431
C15G A41C | 0.398
C15G A41U | 0.307
C15G C30A | 0.653
C15G C30U | 0.722
C15G C30G | 0.618
C16A A40G | 0.297
C16A A40U | 0.284
C16A A40C | 0.402
C15A C43U | 0.415
C15A C43G | 0.337
C15A C43A | 0.341
C15A G17C | 0.328
C15A G17U | 0.374
C15A G17A | 0.351
C16A G18U | 0.525
C16A G18C | 0.341
C16A G18A | 0.351
C15A G25C | 0.381
C15A G25A | 0.341
C15A G25U | 0.339

Variant | self-cleavage
C15G G27A | 0.464
C15G G27C | 0.427
C15G G27U | 0.339
C15A A37U | 0.434
C15A A37G | 0.895
C15U A42U | 0.329
C15U A42C | 0.351
C15U A42G | 0.265
C15A G31A | 1.05
C15A G31U | 0.999
C15A G31C | 0.807
C15A G22U | 0.303
C15A G22C | 0.3
C15A G22A | 0.34
C15U C43A | 0.413
C15U C43U | 0.483
C15U C43G | 0.305
C16A G17U | 0.325
C16A G17C | 0.386
C16A G17A | 0.374
C15U A23G | 0.271
C15U A23U | 0.342
C15U A23C | 0.36
C15U G39U | 0.37

Variant | self-cleavage
C15U G39C | 0.407
C15U G39A | 0.347
C15G U28C | 0.528
C15G U28A | 0.389
C15G U28G | 0.384
C15U G17A | 0.556
C15U G17U | 0.476
C15U G17C | 0.399
C15U C29U | 0.808
C15U C29A | 0.686
C15U C29G | 0.802
C15G G18A | 0.378
C15G G18C | 0.353
C15G G18U | 0.293
C15G | 0.877
C15U | 0.912
C15U G27C | 0.749
C15U G27A | 0.687
C15U G27U | 0.579
C15G A37C | 0.364
C15G A37G | 0.535
C15G A37U | 0.367
C15A C38G | 0.515
C15A C38U | 0.814

Variant | self-cleavage
C15A C38A | 0.501
C16A C38U | 0.85
C16A C38G | 0.542
C16A C38A | 0.631
C15A C29U | 0.753
C15A C29A | 0.457
C15A C29G | 0.486
C16A G39C | 0.337
C16A G39A | 0.356
C16A G39U | 0.336
C15U U28C | 0.803
C15U U28A | 0.516
C15U U28G | 0.568
C15A U24C | 0.892
C15A U24G | 0.743
C15A U24A | 0.875
C16A G31U | 1.29
C16A G31C | 1.04
C16A G31A | 1.22
C16A A44U | 0.5
C16A A44G | 1.35
C16A A44C | 0.563
C15A A40G | 0.415
